Measurements as given in US20250064979A1.

Molecular target: Gag-P3-pol (P3 coiled-coil peptide fused to MMLV Gag-pol) (Moloney murine leukemia virus) (UniProt P03332)
Assay: cell-based or functional assay

Gag-PE fusion with P4 peptide fused to its C-terminus (construct 1 of FIG. 44A) (from UniProt P03332 1-538)
editing efficiency of PE VLPs: 2 fold
